In publication PMC11677724, “Preclinical Study of a Dual-Target Molecular Probe Labeled with ^68Ga Targeting SSTR2 and FAP” (Pharmaceuticals, 2024):
Where two headings read alike, the source gives them in different places.

Assays:
[1] = test system: NCI-H727 cells (SSTR2/FAP, positive); assay: Cell uptake and blocking in NCI-H727 cells; assay type: cell-based; details: 1 h
Method: The NCI-H727 and Mc38 cell lines were supplied by the Stem Cell Bank of the Chinese Academy of Sciences and were cultivated in Roswell Park Memorial Institute (RPMI-1640) medium with 10% (v/v) fetal bovine serum (FBS) at 37 °C with 5% CO2. All cells were cultured until they reached 80–90% confluence before undergoing trypsinization.
NCI-H727 cells were placed in a 24-well plate and cultivated for 24 h. The original medium was removed, and fresh RPMI-1640 was added. Then, 100 µL of [^68Ga]Ga-TATE-46, [^68Ga]Ga-DOTA-TATE, or [^68Ga]Ga-FAPI-46 (1.48×10^4 Bq) was added to each well, and the cells were incubated for 30 min, 1 h, 2 h, and 4 h (with three replicates for each time point). The culture medium was taken away, and the cells were washed twice with cold PBS (pH 7.4). Then, the cells were lysed using 0.5 mL of 1 M NaOH.
In blocking experiments, an excessive amount of unlabeled FAPI-46, DOTA-TATE, or FAPI-46 + DOTA-TATE (10 µg/well) was added as an inhibitor along with [^68Ga]Ga-TATE-46 to the cells. After 1 h, the cells were processed using the same method. Finally, the cell lysates were gathered, and the radioactivity was measured using a γ-counter. Mc38 cells were used as a negative control, with only [^68Ga]Ga-TATE-46 (1.48 × 10^4 Bq/well, 100 µL) added, and the rest of the procedure was followed as described above.

[2] = Ex vivo biodistribution in NCI-H727 tumor-bearing mice; details: female, BALB/c nude, mouse, in vivo, 1.48 MBq, total radioactivity, γ-counter, mean ± SD, n=3; for tissue uptake at 0.5 h: 0.5 h p.i.; for tissue uptake at 1 h: 1 h p.i.; for tissue uptake at 2 h: 2 h p.i.; for tissue uptake at 4 h: 4 h p.i.
Method: (§1) Female BALB/c nude mice were obtained from Charles River Laboratories (Beijing, China). […] Approximately 5 × 10^6 cells were implanted into the right shoulder of each mouse to establish an NCI-H727 tumor model and Mc38 tumor model. Once the tumor volume reached 200–300 mm^3, the mice were used for imaging or biodistribution studies. All animal experiments were carried out in accordance with the National Institutes of Health Guidelines for the Care and Use of Laboratory Animals and were approved by the Animal Protection and Utilization Committee of the General Hospital of the PLA (Approval No.: S2023-209-1).
(§2) The NCI-H727 tumor-bearing mice were randomly assigned to four groups (with three mice in each group) and were injected with [^68Ga]Ga-TATE-46 (1.48 MBq, 100 µL). The mice were put to death at 0.5, 1, 2, and 4 h post-injection (p.i.). The tissues and organs of concern were gathered, weighed, and measured for radioactivity using a γ-counter. Additionally, [^68Ga]Ga-DOTA-TATE and [^68Ga]Ga-FAPI-46 were used as control groups in the biodistribution study of the NCI-H727 tumor model at 1 h p.i. After performing time decay correction, the radiotracer uptake in each tissue and organ was calculated as %ID/g.

[3] = test system: NCI-H727 tumor-bearing mice; assay: as above; details: biodistribution in NCI-H727 tumor-bearing mice
Method: as §1, §2

[4] = test system: NCI-H727 tumor-bearing mice; assay: Micro PET imaging with ROI quantification and blocking, NCI-H727 tumor-bearing mice; assay type: in vivo, BALB/c nude mice
Method: as §1
Each set of NCI-H727 tumor xenograft models (n = 3) was administered with [^68Ga]Ga-TATE-46, [^68Ga]Ga-DOTA-TATE, or [^68Ga]Ga-FAPI-46 (5.55–7.4 MBq, 150 µL/mouse) through the tail vein. Static PET scans were performed at 30 min, 1 h, 2 h, and 4 h after injection for 10 min each. In blocking studies, unlabeled precursors (FAPI-46, DOTA-TATE, FAPI-46 + DOTA-TATE, 10 mg/kg) were co-injected with [^68Ga]Ga-TATE-46. After image acquisition, the images were reconstructed using the three-dimensional ordered subset expectation maximization (3D-OSEM) algorithm and analyzed on the Recon/Avator-s-10 workstation. The percentage of injected dose per gram of tissue (%ID/g) was determined by delineating regions of interest.

[5] = NCI-H727 tumor, read-out: Biodistribution, Tumor (tumor uptake)
[6] = NCI-H727 tumor-bearing mice, read-out: Biodistribution, Blood
[7] = NCI-H727 tumor-bearing mice, read-out: Biodistribution, Bone
[8] = NCI-H727 tumor-bearing mice, read-out: Biodistribution, Brain
[9] = NCI-H727 tumor-bearing mice, read-out: Biodistribution, Heart
[10] = NCI-H727 tumor-bearing mice, read-out: Biodistribution, Intestine
[11] = NCI-H727 tumor-bearing mice, read-out: Biodistribution, Kidney
[12] = NCI-H727 tumor-bearing mice, read-out: Biodistribution, Liver
[13] = NCI-H727 tumor-bearing mice, read-out: Biodistribution, Lung
[14] = NCI-H727 tumor-bearing mice, read-out: Biodistribution, Muscle
[15] = NCI-H727 tumor-bearing mice, read-out: Biodistribution, Spleen
[16] = NCI-H727 tumor-bearing mice, read-out: Biodistribution, Stomach

C[C@@H](O)[C@H](NC(=O)[C@@H]1CSSC[C@H](NC(=O)[C@@H](Cc2ccccc2)NC(=O)CCCCCNC(=O)CCCCCNC(=O)[C@H](Cc2ccccc2)NC(=O)C(CCC(=O)N[C@@H](Cc2ccccc2)C(=O)NCCCCCC(=O)NCCCCCC(=O)N2CCN(CCCN(C)c3ccc4nccc(C(=O)NCC(=O)N5CC(F)(F)C[C@H]5C#N)c4c3)CC2)NC(=O)CN2CCN(CC(=O)O)CCN(CC(=O)O)CCN(CC(=O)O)CC2)C(=O)N[C@@H](Cc2ccc(O)cc2)C(=O)N[C@H](Cc2c[nH]c3ccccc23)C(=O)N[C@@H](CCCCN)C(=O)N[C@@H]([C@@H](C)O)C(=O)N1)C(=O)O (some centres unmarked) [[^68Ga]Ga-TATE-46, metal not drawn]
cellular uptake in NCI-H727 cells compared with [68Ga]Ga-DOTA-TATE and [68Ga]Ga-FAPI-46 ([1]; 1.48×10^4 Bq/well, 30 min, 2 h, 4 h, γ-counter, n = 3, all p < 0.001): significantly higher
cellular uptake in NCI-H727 cells on co-incubation with unlabeled TATE, FAPI-46, or TATE + FAPI-46 ([1]; blocker at 1000 times the molar amount (10 µg/well), all p < 0.01): significant reduction
tissue uptake at 0.5 h [2, 5]: 3.56 ± 0.69 %ID/g
tissue uptake at 0.5 h [2, 6]: 13.5 ± 2.03 %ID/g
tissue uptake at 0.5 h [2, 7]: 4.84 ± 0.25 %ID/g
tissue uptake at 0.5 h [2, 8]: 0.37 ± 0.06 %ID/g
tissue uptake at 0.5 h [2, 9]: 4.71 ± 0.3 %ID/g
tissue uptake at 0.5 h [2, 10]: 4.58 ± 2.16 %ID/g
tissue uptake at 0.5 h [2, 11]: 23.9 ± 8.92 %ID/g
tissue uptake at 0.5 h [2, 12]: 10 ± 2.51 %ID/g
tissue uptake at 0.5 h [2, 13]: 7.03 ± 1.58 %ID/g
tissue uptake at 0.5 h [2, 14]: 2.4 ± 0.48 %ID/g
tissue uptake at 0.5 h [2, 15]: 4.48 ± 0.72 %ID/g
tissue uptake at 0.5 h [2, 16]: 6.84 ± 0.73 %ID/g
tissue uptake at 1 h [2, 5]: 7.53 ± 1.13 %ID/g
tissue uptake at 1 h [2, 6]: 11.3 ± 2.53 %ID/g
tissue uptake at 1 h [2, 7]: 4.8 ± 1.08 %ID/g
tissue uptake at 1 h [2, 8]: 0.36 ± 0.03 %ID/g
tissue uptake at 1 h [2, 9]: 4.15 ± 0.83 %ID/g
tissue uptake at 1 h [2, 10]: 3.74 ± 0.72 %ID/g
tissue uptake at 1 h [2, 11]: 37 ± 3.89 %ID/g
tissue uptake at 1 h [2, 12]: 10.5 ± 2.84 %ID/g
tissue uptake at 1 h [2, 13]: 5.51 ± 0.97 %ID/g
tissue uptake at 1 h [2, 14]: 2.39 ± 0.49 %ID/g
tissue uptake at 1 h [2, 15]: 4.01 ± 0.79 %ID/g
tissue uptake at 1 h [2, 16]: 6.68 ± 0.95 %ID/g
tissue uptake at 2 h [2, 5]: 7.08 ± 0.88 %ID/g
tissue uptake at 2 h [2, 6]: 6.13 ± 0.61 %ID/g
tissue uptake at 2 h [2, 7]: 4.65 ± 0.87 %ID/g
tissue uptake at 2 h [2, 8]: 0.23 ± 0.04 %ID/g
tissue uptake at 2 h [2, 9]: 2.41 ± 0.35 %ID/g
tissue uptake at 2 h [2, 10]: 2.85 ± 1.12 %ID/g
tissue uptake at 2 h [2, 11]: 26.5 ± 4.77 %ID/g
tissue uptake at 2 h [2, 12]: 8.4 ± 0.12 %ID/g
tissue uptake at 2 h [2, 13]: 3.67 ± 0.68 %ID/g
tissue uptake at 2 h [2, 14]: 2.36 ± 0.14 %ID/g
tissue uptake at 2 h [2, 15]: 3.05 ± 0.38 %ID/g
tissue uptake at 2 h [2, 16]: 6.18 ± 0.43 %ID/g
tissue uptake at 4 h [2, 5]: 6.48 ± 1.82 %ID/g
tissue uptake at 4 h [2, 6]: 4.09 ± 0.21 %ID/g
tissue uptake at 4 h [2, 7]: 4.49 ± 0.06 %ID/g
tissue uptake at 4 h [2, 8]: 0.24 ± 0.02 %ID/g
tissue uptake at 4 h [2, 9]: 1.9 ± 0.09 %ID/g
tissue uptake at 4 h [2, 10]: 1.82 ± 1.11 %ID/g
tissue uptake at 4 h [2, 11]: 22.4 ± 6.23 %ID/g
tissue uptake at 4 h [2, 12]: 8.08 ± 0.87 %ID/g
tissue uptake at 4 h [2, 13]: 2.69 ± 0.17 %ID/g
tissue uptake at 4 h [2, 14]: 2.36 ± 0.32 %ID/g
tissue uptake at 4 h [2, 15]: 3.04 ± 0.09 %ID/g
tissue uptake at 4 h [2, 16]: 5.05 ± 0.01 %ID/g
tumor/muscle ratio [3]: 3–4
tumor uptake in NCI-H727 tumors (PET ROI) compared with [68Ga]Ga-FAPI-46 and [68Ga]Ga-DOTA-TATE ([4]; 5.55–7.4 MBq, 30 min-4 h p.i., n = 3, p < 0.001): significantly higher
tumor uptake (PET) on co-injection with blocking agents DOTA-TATE, FAPI-46, or DOTA-TATE + FAPI-46 ([4]; blockers 10 μg/g each, NCI-H727 tumors, 1 h p.i., all p < 0.001): significantly reduced
